According to the DeepSol protein solubility set:

Assay: soluble on expression in E. coli; label from the status in PepcDB or PDB records

Sequence	soluble on expression in E. coli
MRKILITGGAGFIGSALVRYIINETSDAVVVVDKLTYAGNLMSLAPVAQSERFAFEKVDICDRAELARVFTEHQPDCVMHLAAESHVDRSIDGPAAFIETNIVGTYTLLEAARAYWNALTEDKKSAFRFHHISTDEVYGDLHSTDDFFTETTPYAPSSPYSASKASSDHLVRAWLRTYGLPTLITNCSNNYGPYHFPEKLIPLMILNALAGKSLPVYGNGQQIRDWLYVEDHARALYCVATTGKVGETYNIGGHNERKNLDVVETICELLEELAPNKPHGVAHYRDLITFVADRPGHDLRYAIDASKIARELGCVPQETFESGMRKTVQWYLANESWWKQVQDGSYQGERLGLKG	soluble
MGSDKIHHHHHHMIKFGEAVLGNEIKAIVNVALGKGELIENTFTNALTRGNCVFANLRPNLIVKPLTLVVPRHNIESEIQDELFQGVIQYAVAKAVADLDLDEDLKVVVSVNVPEVPITNLNKRKLFQYFYASAKLAINRALNEYPSKEKVKKEKYRALHPLVGFRDVRLEYPPYLQIALDVPTMENLEFLLQTIPNSDHIILEAGTPLIKKFGLEVIEIMREYFDGFIVADLKTLDTGRVEVRLAFEATANAVAISGVAPKSTIIKAIHECQKCGLISYLDMMNVSEPQKLYDSLKLKPDVVILHRGIDEETFGIKKEWKFKENCLLAIAGGVGVENVEELLKEYQILIVGRAITKSKDPGRVIRMFINKMGYDIDTYRLYFDEDEDIGEEL	not soluble
MGSDKIHHHHHHMKHSRTAAAKRKTGVFARLADLYTRMEQEYSDKARAAGLTCAGCPDNCCTSYFQHHTHVEWLYLWRGMNRLPEARRAAYLARAKDVVEQSRDLLARGIRPRLMCPVNDDGLCGIYEHRLMICRMHGTRNVLALPDGGLRSFSGCFRFVECTAGQQAEAVPTVDRTPYYRELAALEMEHVGPRLKKLPRVDLTLAEMLFYGPPKL	not soluble
MGSDKIHHHHHHKSVHPYWSQVEQGVKAAGKALGVDTKFFVPQKEDINAQLQMLESFIAEGVNGIAIAPSDPTAVIPTIKKALEMGIPVVTLDTDSPDSGRYVYIGTDNYQAGYTAGLIMKELLGGKGKVVIGTGSLTAMNSLQRIQGFKDAIKDSEIEIVDILNDEEDGARAVSLAEAALNAHPDLDAFFGVYAYNGPAQALVVKNAGKVGKVKIVCFDTTPDILQYVKEGVIQATMGQRPYMMGYLSVTVLYLMNKIGVQNTLMMLPKVKVDGKVDYVIDTGVDVVTPENLDEYLKKMEELGIPIKF	not soluble
MAHHHHHHMSENLDRYDAYRLFCISAAAVNGDEDELQDRLGIVEEYLTEYEGLCRAFHKAQRTTHAQEIRRLLADEAEERRFLKEDADSLPWKLFINMSFACAQELVVEHERKMRQGIVAAYTASFTELLFPYETLQRMRLTWEALDSLALKACIVGRYGVREGQLARTSIPGYTAGSTFPPSARAAAAADAVRSLLAEEHQERQEMIEARGQHVAAALLILASSEKFRSFASASVCGMGFLPQLRNNLASTARQALDNSATRIQSAYRGYRVRAVRARS	not soluble
MLILGHPLIPSARFVFIKNTDAIHSNTNNDIVCFEAHPKNLELAKYCCENSVHFSVIFLSHKIETDTFFLFNAFKPLYCIFKDIKQAILAQQHATNYLLDSKILFFMDLNDTELWEICAKSQIDGVISKDSLLLK	soluble
MSIEVRDCNGALLADGDNVSLIKDLKLKGSSTVLKRGTMIRGIRLTDSEDEIEGRTDKIKGLVLRTEFLKKAGS	soluble
MQVNRLPFFTNHFFDTYLLISEDTPVGSSVTQLLARDMDNDPLVFGVSGEEASRFFAVEPDTGVVWLRQPLDRETKSEFTVEFSVSDHQGVITRKVNIQVGGVNDNAPTFHNQPYSVRIPENTPVGTPIFIVNATDPDLGAGGSVLYSFQPPSPFFAIDSARGIVTVIQELDYEVTQAYQLTVNATDQDKTRPLSTLANLAIIITDLEHHHHHH	soluble
MLSPLAKANLCLNLFGFFKVPLIWACRPKILSLNDQAVEVRIPLKRRNKNHLNSMYFGVLAVGADVAGGYMAMHKANQRGKSVSLAFKSVRGEFHKRPEAAVHFHCVEGEKIDRMLDETARTGERVNQEVHIIATCPTLHGDEPMAEFWLTLSLKIVKLEHHHHHH	soluble
WSGVMEWQEPRPEPNSRSKRWLPSHVYVNQGEILRTEQWPRKLYMQLIPQQLLTTLVPLFRNSRLVQFHFTKDLETLKSLCRIMDNGFAGCVHFSYKASCEIRVLMLLYSSEKKIFIGLIPHDQGNFVNGIRRVIANQQQVLQRNLEQEQQQRGMGG	not soluble
GPGSMPTRSHGDEEYYRQSRYKPVSIEDTPMFWKERADKCYGTQQWKAAANAYSESIKRDGAFLTCVMNRSACYLQMADYKRAIEDCSLALTMLANTPASEVTQERYRGLMTKLHARRGAAYCWADDLKSGAADLRMAAAYRDPTSDDDVAADLAMIEAQMKERGITEVDACVDPLSTRMQEAAAQYYQGSYEAAEATYSAILKEQPFHMKAQGNLAATLLRAGKFTQALQVCDGIVQFCSEAAAALEQPGGLAGDQLDSDDEEDEDEPDWAASSTESAPEEVEGASNKDTLVRQRRAAAKTLGEQSGHVYMLLKAYVRSAAALCGMKEYHKAHGYLERAMRITPYDNDLREDCNRLAEKIRMDTLITASAGSARTQKAAV	soluble
MKAFDQVNHSLLLHKLHDFGINPLFCNWFHDFLSSRTFSVKVNNHIDPNIHPIPSGVPQGSVSGPFLFLIFINSLLLSLPPTISCSAFADDLKVYSHSPPLIQTTIDLITAWSENNKLPLAHSKTCLLHLGKKNPKTVYKINNLPISPSNVARDLGILTDSKLTFKTHIKKIVFLALLRCKQLLKSFKSLCPEFCCNLFKTYILPLIEYGSAVYSPKPSSSLSTLLEKPLRWYSQKVLQKCNISYSSYNDRLKSLNLHSIRHRRLKSKLILLYKFCCGTSFLPQKETYFKLSTSSRRPMRIICHNPSSNNFFSDTISFWNAITNNCDTFLSPIHFENLVDNSITRL	not soluble
MSLRLERLNYNKIKIFLTLDDLTDRGLTKEDLWKDSFKVHQLFKDMMNEANTELGFEANGPIAVEVYSLQAQGMVVIVTKNQDADSEDDEYDDDYIEMQVKLDESADIIYQFHSFEDIIQLSESLQRIGITGGTVYHYDGQYFLSLEDLGSHTAEGVVAVLAEYGNPTTLTIYRLQEYGKLIMDGNAVETIQTHFSEGHHHHHH	soluble
MGSDKIHHHHHHFLDELPDNRTELNSEQKIAKMLVSAYPEGSANELFELYSDNTDDNSARYSYYKLSEEECYNWKDTQEEYQDTPTNLWETHYIAIASANMALEEIEKRGNPESLMPQRGEALVCRAYNHFVLANIFCNAYNTHASQELGIPYMTKVETTVQPQYGRGTLQETYEKIEKDLLDGMALISDDSYSVPKYHFTRKAAYAFAARFYLYYMKPDFSNCDEVIKYADRVLGSDPAAELRDWEALGKLSANDNVQPDAYIASTSKANLLIGSTVSNWGIILSNYMTGKRYLHNKLIASYETSRSSGLWGIPDRMYMQPFTTSGYECSMLRKGGYYAGDYLYYMPVIFSTDETLLCRAEAYTLKKNYPMAAADLTTWEKAYTSNKQTLTPGMINEYYDKMDYYNPTQNPTPKKKLQPDFTIESGIQENFIHCILHMRRIATLHEGLRWPDIKRYGIVIYRRSIANNNIVVTDEMPVNDARRAMQIPKSVVLAGMQPNPRTEN	not soluble
MGSDKIHHHHHHMQLLHTPAAISISFDDPNLISTAGLVPTMALAEDRLTVPTDKGANPGAKITTLIAGMVAGADSIDDIDALRHGGMHRLFDWIYAPSTLGSFLRAFTFGHVRQLDAVASRFLVGLATQAPALVPVDASTSDYVFIDVDDTIIKVHGHQKQGAGFGYSGIRGLNALLATVTTPESAPVVVAQRLRKGSCGSPRGAGRLIADAVATTRRLPGMEDEKILLRADSAFYGHPSISAAIKAGADVSVTVRMTPNVKKAIAQVPDDAWQTIKYTNAIFDEDTGRWISVAEVAEIPFTAFTSRKKTDHIPGLLVVRRIPELNNKDVDQPGLFDLHRFHAVFTTADPGILDTVAADKTHRQHAIIEQVNADVKASALAHMPSGVFTANSAWLVCAVMAFNLTRTAGVIAAGAMARATTATIRRKLVAVPARIARSARRLILHLPRNWRWETQWSRLCDHGRLPP	not soluble
MRMSSNFRNPCMIRSDVPLSNDQIAHYVPSIFAEEAHDSRSARYLYIPTVQVLDALRAEGFEPFMACQTRVRDQGKREHTKHMLRLRHASQILDQEANEVILLNSHDGSSSYQMIGGKFRFVCANGLVLGDVAADQKVRHSGRGDVVHDVIEGAFEVLKHFEQIDHITADMKHQQLDQDEQEAFALAALAYRYDPAEGPAPVTPSQLLMPRRREDRSSDLWTTFNRVQENTIKGGLTGRNKQGRRTTTRAVNGIDQDVKLNRALWVLAQAMGEHRKAA	not soluble
MATKEFYFAIIGHCDQPIFEMDFPVGEKKTKESEGTRHLNHYIGHAALDIVDEHALTTSQMYLKMVDKFNEWYVSAFVTASRIRFIMLHTHRADEGIKQFFQEMYETYIKHAMNPFYEIDDVIESPAFEQKATLYGRKYLS	not soluble
MSGQNNVVGVHYKVGRRIGEGSFGVIFEGTNLLNNQQVAIKFEPRRSDAPQLRDEYRTYKLLAGCTGIPNVYYFGQEGLHNVLVIDLLGPSLEDLLDLCGRKFSVKTVAMAAKQMLARVQSIHEKSLVYRDIKPDNFLIGRPNSKNANMIYVVDFGMVKFYRDPVTKQHIPYREKKNLSGTARYMSINTHLGREQSRRDDLEALGHVFMYFLRGSLPWQGLKAATNKQKYERIGEKKQSTPLRELCAGFPEEFYKYMHYARNLAFDATPDYDYLQGLFSKVLERLNTTEDENFDWNLL	soluble
VDKIYVIEENDPFIEEQIKAYGIDCIGKDVIPPYGEMTPDVLRKAIFGKTNDTIEYKSELVTPRPPSFCAGCPHRGFFYELGKRKNLIVGGDIGCYTLGFAPPYNGIDYVVCMGSAFGTAHGAQKVLNMKDDNEKRLVGVLGDSTFFHTGINGLLDVVYNRGNSISVILDNRITGMTGHQENPGSGYTLQGAKTKEVDIEGLVKACGIEHVRVINPNNLKEVNEALDWALAIEDEPSVIIT	not soluble
MSLQKRVTDEDIKERLDKIGFRIAVMSGKGGVGKSTVTALLAVHYAKQGKKVGILDADFLGPSIPHLFGLEKGKVAVSDEGLEPVLTQRLGIKVMSIQFLLPKRETPVIWRGPLIAGMIREFLGRVAWGELDYLLIDLPPGTGDAPLTVMQDAKPNGAVIVSTPQELTAAVVEKAITMAEQTKTAVLGIVENMAYFECPNCGERTYLFGEGKASELARKYKIEFITEIPIDSDLLKLSDLGRVEEYEPDWFEFFPYEGGSHHHHHH	soluble
SPRPRKRQTGTAGPDRKKLSGKRTKTENSESTSVKLENSSLEMTTTFKNGGKNLSNYWLMKSEPESRLEKGIDMKFSIEDLKAQPKQTACWDGVRNYQARNFLRAMKLEDEAFFYHSNCKQPGIVGLMKIVKEAYPDHTQFEKSNPHYDPSSKEDDPKWSMVDVQFVRMMKRFIPLEELKTYHQAHKATGGPLKSMTLFTRQRLSVQPLTQEEFDFILSLEETEPS	soluble
MRITIVTIFPEMVEVIKKYGVIARAVERGIVEINVENLRDYTTDRHRTVDDYQYGGGYGMVMKPEPFFRFYESYVEKYGKPYVILTSPQGRIFNYKIAEELSKKDDIVIFCGRYEGIDERVMSIVDDEISIGDYILTGGELPAMVITDAVVRLVPGVVERESVERESFHQGLLDHPVYTRPYEYKGMKVPDVLLSGDHEKVELWRRKESIKKTLAKRPDLFLAKELDEMDKLAIIELFRELMEKC	soluble
